Assay results taken from article PMC7518282.

Tested on: PAL
Assay: plate RNA binding assay (RiboGreen), immobilized PAL
Conditions: 12 mM HEPES/KOH pH 7.2, 135 mM KCl, 10 mM NaCl, 10% w/v glycerol, 0.5 mg/mL heparin, 0.5 mg/mL BSA, 25 C, 30 min, 465 nm light or dark, 100 or 1000 nM RNA

Row | Sequence | binding signal (% (normalization reference)) (blue light 465 nm) | binding signal (% of aptamer 53 in light) (1000 nM RNA, dark (block inferred from row order), mean of 6 printed values) | binding signal (% of aptamer 53 in light)
1 | GGGAGGACGAUGCGGCCCGUACAGCAGCGAUGCGGGUCGCGUGUCCACCCCGGCUCAGACGACUCGCUGAGGAUCCGAGA [aptamer 53] | 100 | – | –
2 | GGGGUGGAAUCUUUACAGGACUAUCACGGUACAGCACCGAUGCCGGAUAGUCCUGUAAAGAUUCCACUU [SHCDK1m] | – | 1.35 | 3.97
